Laboratory results: the supplement of paper PMC9170038

Tested on: MS2 coat protein
Test: apparent KD of MS2 coat protein; higher = weaker reporter binding
Conditions: Eterna round: R107
Procedure: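 RNA-MaP round R107: designed RNA switches with theophylline, tryptophan, arginine or FMN aptamers are transcribed on-chip within common flanks. They are titrated with SNAP-549-labelled MS2 coat protein in RNA-MaP buffer (100 mM Tris pH 7.5, 80 mM KCl, 4 mM MgCl2), without ligand or with the indicated ligand. Median apparent KD per design.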

[1] = input ligand: theophylline 20 uM
[2] = input ligand: theophylline 2 mM
[3] = input ligand: tryptophan 2.4 mM

Row | Sequence | apparent KD of MS2 coat protein (input ligand: arginine 13.2 mM) | apparent KD of MS2 coat protein [1] | apparent KD of MS2 coat protein [2] | apparent KD of MS2 coat protein [3] | apparent KD of MS2 coat protein (input ligand: none)
1 | AGGUACAGCAGGUGAUUCUGGCUGUACCAACGAGGACCGGUACGGCCGCCACUCGAAUAAACAUGAGGAUCACCCAUGUACAAAU [T''-M-T'-T-MS2 - Design 7] | 20.3 nM | 41.3 nM | 31.9 nM | – | –
2 | ACGUCUCGUUUACUCGUGGGUUAGCUCGAUACCAGUAUUCAAACUUACCCUUGGCAGCGACAUGAGGAUCACCCAUGUGCGAAGA [XTheo A #23] | 17.3 nM | 20.5 nM | – | 17.5 nM | –
3 | UAAAACAUGAGGAUCACCCAUGUAAUUGAUACCAGAGUGAUGAUCCUCCCUUGGCAGCAAAACGCUGAUUGGAAACAAUCAGCGA [Mat - Same State Theophlline A - Mod of Eli - D25] | 50.1 nM | 102 nM | – | 46.8 nM | –
4 | UCGCUCUGGGUGAGUUCCGGAGAUGUGGAAGGAGCGCUCGAAAGAGCAGGUAGGUCGCCAACGGACAUGAGGAUCACCCAUGUAC [Same State - Arginine A (Freestyle 21)] | 33.8 nM | 76.1 nM | 34.4 nM | 40.3 nM | 39.1 nM
5 | GAUGAACUAUAUGAUACCAGACAACAUGAGGAUCACCCAUGUGUAUGUCGUCCUCUGCCUGUCCCUUGGCAGCGUAUAGUUUAUC [XTheo B #17] | 36.8 nM | 70.1 nM | – | 16.1 nM | –
6 | AGCCGGAUUACGGCCGCCACUGUAGACGUGACGAAAGUCGCGUCAACAUGAGGAUCACCCAUGUACAGGACCGGGUGGUCGGGCG [Omei Tryp B SS A v5] | 74.1 nM | 247 nM | 240 nM | – | –
7 | AGCCGUACGUACGGAAACGUACGUACGGCACGAGGACCGGUACGGCCGCCACUCGCCCACAUGAGGAUCACCCAUGUAGUGGGUG [The One Line] | 23.4 nM | 58.2 nM | 53.4 nM | 103 nM | 43.7 nM
8 | UCGGGCAGAGCGGCCGCCACUGUUUGGCAUGCGGAUGAAGGAACAUGAGGAUCACCCAUGUAGAUUAGGACCGGGCUGGCGGAGA [jjhemullin] | 17.3 nM | 19.2 nM | 39.4 nM | 36.5 nM | 20.1 nM
9 | UGGGAAGGAGGAAGGAGCGCCAUAAGGGUGACAGUCUGGGUACAUGAGGAUCACCCAUGUAGGCAGGUAGGUCGCCUAGCUCUCA [XArg-B16] | 9.4 nM | 12.9 nM | 12.9 nM | 9.56 nM | 9.14 nM
10 | CCUAGCACACAUGAUACCAGCGACAUGAGGAUCACCCAUGUACGGCGUGUAUCGCAAGGUUGCCCUUGGCAGCAUGAUAGUGCUG [Xeerdi] | 12.7 nM | 24.7 nM | – | 14.2 nM | –
11 | AGUAGUUGACAAAAGUCAGCUACAAUUGAAGGAGCGGGUGGGUGCCCAGGUAGGUCGCAAUAACAUGAGGAUCACCCAUGUAUAA [ArgAS 2 #BothOrNeither #OpenEnded] | 20 nM | 22.9 nM | 27.2 nM | 17.9 nM | 21 nM
12 | ACACGGGCAUGAGGAUCACCCAUGUAAUAACGAGGACCGGUACGGCCGCCACUCGUGCACCGUGACCUGUACGAAAAGUGCAGGA | 13.6 nM | 26.5 nM | 29.5 nM | 9.98 nM | 20.8 nM
13 | AAGGUGAUCCCAGAUACCAGCUUAACAUGAGGAUCACCCAUGUUUGGGACGAAAGUCCCGGGCCCUUGGCAGCUGGGUUGCCAAG [SSTheo B #18] | 61.9 nM | 402 nM | – | 174 nM | –
14 | UGGAGUAUCAGACAUGAGGAUCACCCAUGUCGAGGACCGGUACGGCCGCCACUCGGCAGUUUGCGUCCUCAGGUACUCCGGGUAA [Edlatearis] | 16.8 nM | 26.9 nM | 15.3 nM | 27.7 nM | 11.2 nM
15 | AAUAAAUCACAUGAGGAUCACCCAUGUGAUACCAGCCUGGAAACAGGCCCUUGGCAGCACAUGAGGAUCACCCAUGUGCUAAAUA [TheoAX 1 #DoubleMS2 #OpenEnded] | 6.79 nM | 8.81 nM | – | 8.43 nM | –
16 | AGCAGCUCGAAAGAGUUGCACUCAUGUGAAGGAGCGCGCGUUAGCGCAGGUAGGUCGCACAUGAGGAUCACCCAUGUACCUUCUA [MAT - Exclusion Arginine A - Mod of Eli - D15] | 87.3 nM | 211 nM | 268 nM | 108 nM | 173 nM
17 | UACUUGCUGACGGCCGCCACUAGAACAUGAGGAUCACCCAUGUAUGGCGGCCGAAUCCUCAUGACUAGGACCGGGUCAGCAAGAU [(Trp1)-(Ms2)-(T)'-(M)'-(Trp2)_Design2] | 8.18 nM | 12.5 nM | 8.75 nM | 8.22 nM | 8.09 nM
18 | GAUUACAUGAGGAUCACCCAUGUAACUGAAGGAGCGGUAAUAAAGCCAGGUAGGUCGCGGAACAACAUGUGGAUCACCCAUGUAA [#13 Exclusion - Arginine A] | 33.7 nM | 51.6 nM | 43.7 nM | 32.7 nM | 43.5 nM
19 | GUAUACAUGAGGAUCACCCAUGUACCAGAAGGAGCGCUGGAAACAGCAGGUAGGUCGCUGGUAGGUCCUCUAUCUAGACGUUCGG [EAA NP+V+V2 #4] | 49.9 nM | 191 nM | 201 nM | 139 nM | 168 nM

Row | Sequence | apparent KD of MS2 coat protein (input ligand: arginine 13.2 mM) | apparent KD of MS2 coat protein [1] | apparent KD of MS2 coat protein [2] | apparent KD of MS2 coat protein [3] | apparent KD of MS2 coat protein (input ligand: none)
20 | AUCGUACCUGAUGAUACCAGCAUGUGCUCGUAACAUGAGGAUCACCCAUGUGAUCAGUGAUGCCCUUGGCAGCAUGAUCGGUACA [Same State - Theophylline B (Freestyle 16)] | 67 nM | 49.2 nM | 14.1 nM | 61.2 nM | 66 nM
21 | AGCAGUACAACAGAUACCAGACUUUUCAUGCCUUUAAUUACAUGAGGAUCACCCAUGUUUGUCCCUUGGCAGCUGUUGUACUGCA [JR_ExcTheophyB_Sub011] | 29.5 nM | 62.8 nM | – | 39.9 nM | –
22 | UGUAUGGACUGAAGGAGCGGGAAAAUAACCUGAGGAUCACCCAGGUAAAAGGCGAAAGCCACCCAGGUAGGUCGCAGUCCAUACU | 5.69 nM | 10.2 nM | 10.6 nM | 12.5 nM | 10.7 nM
23 | AGAAUAACAUGAGCAAAGCUCAUGUGCGAAGGAGCGGCGGAAACGCCAGGUAGGUCGCGCACAUGAGCAUCAGCCAUGUGUACCA [Omei Arginine B SS A v5] | 11.5 nM | 201 nM | 65.8 nM | 58.9 nM | 30.7 nM
24 | CCCAGUUAUAACAAAGGAAUAAUACUCGAAGGAGCGUCAUAGUAGGCAGGUAGGUCGCGAGACAUGAGGAUCACCCAUGUAGAGA [qvvmullin] | 34.3 nM | 49.5 nM | 32.2 nM | 32.8 nM | 46 nM
25 | ACGUAAUGCAGAAGGAGCGUCAUUCUCUUACAUGAGGAUCACCCAUGUUACAUGGUUUUAUGACAGGUAGGUCGCUGAAGUACGA [JR_SSArginiB_Sub004] | 71.4 nM | 122 nM | 138 nM | 86.6 nM | 105 nM
26 | CCAUGCAGGUCGGCCGCCACUACACACAUGAGGAUCACCCAUGUAGUUACUGGGUGAAGUGGCAGUAGGACCGGGACCUGCACAU [Brourdmod19] | 94.7 nM | 326 nM | 541 nM | – | –
27 | UUGGGUUUGUGAAGGAGCGGGAAAGUUUUAUAGUGGAUCCUAACAUGAGGAUCACCCAUGUCCCAGGUAGGUCGCGCGGGUUUGG [12.R] | 60.7 nM | 182 nM | 152 nM | 107 nM | 182 nM
28 | AAUCGGGAUGGUCAAGGGUAUGCUAUAGAUACCAGUGCAGAGAAACACCCUUGGCAGCUGUGGAACAUGAGGAUCACCCAUGUAG [Theo A Ex t4] | 17.2 nM | 22.7 nM | 17.3 nM | 11.1 nM | 11.2 nM
29 | GGGACAUGAGGAUCACCCAUGUACCGGUCCCGAGGACCGGUACGGCCGCCACUCGAUGACCUCAUAGUCUACUUGAGCAGUAGAC [Geeson] | 37.7 nM | 143 nM | 38.6 nM | 100 nM | 22.1 nM
30 | AUACAUGAGGAUCACCCAUGUUAUAGUGAAGGAGCGACAUUUAGGUCAGGUAGGUCGCACUAUAGUAUUAUAAUUCUUAGUUCUU [JR_ExcArginiA_Sub018] | 14.7 nM | 27.9 nM | 21.8 nM | 22 nM | 18.4 nM
31 | GGACUAACCAGAAGGAGCGACGCAAGCAGAAACUGCAAUCCUCCGCACGAGGAUCACCCGUGUCAGGUAGGUCGCUGGUUAGUCG [ArgBX 28] | 21.6 nM | 38.4 nM | 30.1 nM | 29.2 nM | 28.2 nM
32 | ACAUGAGGAUCACCCAUGUUAUUUACCGAAGGAGCGGGUAUAUACCCAGGUAGGUCGCGGACAACAUGAGGAUCACCCACAUGAG [AstrosSSArgA#21] | 45.5 nM | 53.4 nM | 71.4 nM | 27.8 nM | 28.5 nM
33 | UAUCUUGCGGGCGCCCGCAAGGUUGCGGAUACCAGCGAGAUAAAUCGCCCUUGGCAGCCGAACAUGAGGAUCACCCAUGUCGGAC [Same State - Theophylline A Attempt #1 (HarryS)] | 7.94 nM | 11.8 nM | – | 9.87 nM | –
34 | AAUAUAAAAUAAAGAAAAUUUAUAUCUGAUACCAGACUCUCAUGGGUCCCUUGGCAGCAGUAACAUGAGGAUCACCCAUGUAUUA [JR_Nu_SSTheophyA_Sub026] | 67.7 nM | 70.6 nM | – | 123 nM | –
35 | GCACAAGAUGGAAGGAGCGCUGGUAAAAGUCACAUGAGGAUCACCCAUGUGCUCCUUGCCGAGCAGGUAGGUCGCCAUCUUGUGC [SSAB NP+V+V2 #4] | 19.5 nM | 31.8 nM | 33.2 nM | 29.8 nM | 27.8 nM
36 | GGGCCCGGGCGCGAGCCCGGGCCCAUUGAUACCAGUGAAUGUGUGCGCCCUUGGCAGCGAAUCCUAACAUGAGGAUCACCCAUGU [5.E] | 16.2 nM | 117 nM | 50.4 nM | 48.3 nM | 28.6 nM
37 | ACGUCACGUUUACUCGUGGUUUCGUUCGAUACCAGUAGCGAGAGUUACCCUUGGCAGCGACAUGAGGAUCACCCAUGUACGAAGA [XTheo A #24] | 12.7 nM | 15 nM | – | 12.9 nM | –
